Substrate in series [1]: CC(=O)C(=O)O
Description: (§1) Substrate activity at rat MCT2 expressed in Xenopus laevis oocytes assessed as Km by Michaelis-Menten analysis. The conditions noted are these: Oocyte. The format is cell-based.

Substrate in series [2]: C[C@H](O)C(=O)O
The description is as §1. The format is cell-based. The following applies: Oocyte.

Substrate in series [3]: CCC(=O)C(=O)O
Description: (§2) Substrate activity at rat MCT4 expressed in Xenopus laevis oocytes assessed as Km. The format is cell-based. The conditions noted are these: Oocyte.

Substrate in series [4]: C[C@H](O)C(=O)O
The series is described as §2. It is filed as cell-based. The following applies: Oocyte.

Substrate in series [5]: CC(C)(OCc1nn(Cc2ccccc2)c2ccccc12)C(=O)O
The following applies: Homo sapiens; Oocyte; time 10.0 min.

Substrate in series [6]: CCC(=O)C(=O)O
Description: (§3) Substrate activity at rat MCT1 expressed in Xenopus laevis oocytes assessed as Km. The following applies: Oocyte. It is filed as cell-based.

Substrate in series [7]: C[C@@H](O)C(=O)O
Described as §3. It is filed as cell-based. The conditions noted are these: Oocyte.

Substrate in series [8]: C[C@H](O)C(=O)O
The description is as §3. It is filed as cell-based. The following applies: Oocyte.

Substrate in series [9]: C[C@H](O)C(=O)O
Description: Substrate activity at chicken MCT3 expressed in yeast assessed as Km incubated for 3 mins by Michaelis-Menten analysis. The following applies: Gallus gallus.

Where only a bound is given, the exact number is not on record here.

B1: Monocarboxylate transporter 2 (Rattus norvegicus), Q63344 (protein)
chain: MPSESSVKATAAPPPFPLPPDGGWGWVVVCASFISIGFSYAFPKAVTVFFNDIKDIFKTTSSQIAWISSIMLAVMYAGGPISSVLVNNYGSRPVVIVGGLLCCTGMILASFSSSVIELYLTVGFIGGLGLAFNLQPALTIIGKYFYRKRPLANGFAMAGSPVFLSTLAPFNQFLFNSYGWKGSFLILGAIFLHSCVAGCLMRPVGPSPRAAKSKSKVGSRQDSSTKRLSKVSTAEKINRFLDFGLFTHRGFLIYLSGNVVLFLGMFAPIIFLAPYAKDKGVDDYNSAFLLSVMAFTDMFARPSVGLIANTSLIRPRIQYLFSVAIMFTGICHLLCPLAHSYTALVVYVIFFGIGFGSISSLLFECLMDQVGASRFSSAVGLVTIVECCPVLFGPPLAGKLLDITGQYKYLYIASGIVVLSSGIYLLICNAINYRLLEKERKREKARRKKSASQASKEMEALSRSKQDDVTVKVSNTHNPPSDRDKESSI
Turning to B1, the Km in series [1] is 0.08 mM; in series [2], 0.75 mM.

B2: Monocarboxylate transporter 4 (Rattus norvegicus), O35910 (protein)
chain: MGGAVVDEGPTGIKAPDGGWGWAVLFGCFIITGFSYAFPKAVSVFFKELMHEFGIGYSDTAWISSILLAMLYGTGPLCSMCVNRFGCRPVMLVGGLFASLGMVAASFCRSIIQIYLTTGVITGLGLALNFQPSLIMLNRYFNKRRPMANGLAAAGSPVFLCALSPLGQLLQDHYGWRGGFLILGGLLLNCCVCAALMRPLVAPQASGGAEPHGPQRPSPRLLDLSVFRDRGFLIYAVAASIMVLGLFVPPVFVVSYAKDMGVPDTKAAFLLTILGFIDIFARPTAGFITGLKKVRPYSVYLFSFAMFFNGFTDLTGSTASDYGGLVVFCIFFGISYGMVGALQFEVLMAIVGTQKFSSAIGLVLLLEAVAVLIGPPSGGKLLDATKVYKYVFILAGAEVLTSSLVLLLGNFFCIGKRKRPEVTKPEEVASEEEKLHKPPVDVRVDSREVEHFLKAEPEKNGEVVHTPETSV
Turning to B2, the Km was found to be 57 mM in series [3] and 22 mM in [4].

B3: Monocarboxylate transporter 4 (Homo sapiens), O15427 (protein)
chain: MGGAVVDEGPTGVKAPDGGWGWAVLFGCFVITGFSYAFPKAVSVFFKELIQEFGIGYSDTAWISSILLAMLYGTGPLCSVCVNRFGCRPVMLVGGLFASLGMVAASFCRSIIQVYLTTGVITGLGLALNFQPSLIMLNRYFSKRRPMANGLAAAGSPVFLCALSPLGQLLQDRYGWRGGFLILGGLLLNCCVCAALMRPLVVTAQPGSGPPRPSRRLLDLSVFRDRGFVLYAVAASVMVLGLFVPPVFVVSYAKDLGVPDTKAAFLLTILGFIDIFARPAAGFVAGLGKVRPYSVYLFSFSMFFNGLADLAGSTAGDYGGLVVFCIFFGISYGMVGALQFEVLMAIVGTHKFSSAIGLVLLMEAVAVLVGPPSGGKLLDATHVYMYVFILAGAEVLTSSLILLLGNFFCIRKKPKEPQPEVAAAEEEKLHKPPADSGVDLREVEHFLKAEPEKNGEVVHTPETSV
Regarding B3, in [5], the Km amounted to 2.8 mM.

B4: Monocarboxylate transporter 1 (Rattus norvegicus), P53987 (protein)
chain: MPPAIGGPVGYTPPDGGWGWAVVVGAFISIGFSYAFPKSITVFFKEIEIIFSATTSEVSWISSIMLAVMYAGGPISSILVNKYGSRPVMIAGGCLSGCGLIAASFCNTVQELYFCIGVIGGLGLAFNLNPALTMIGKYFYKKRPLANGLAMAGSPVFLSTLAPLNQAFFGIFGWRGSFLILGGLLLNCCVAGSLMRPIGPQQGKVEKLKSKESLQEAGKSDANTDLIGGSPKGEKLSVFQTVNKFLDLSLFTHRGFLLYLSGNVVMFFGLFTPLVFLSNYGKSKHFSSEKSAFLLSILAFVDMVARPSMGLAANTRWIRPRVQYFFAASVVANGVCHLLAPLSTTYVGFCIYAGVFGFAFGWLSSVLFETLMDLVGPQRFSSAVGLVTIVECCPVLLGPPLLGRLNDMYGDYKYTYWACGVILIIAGLYLFIGMGINYRLVAKEQKAEEKKRDGKEDETSTDVDEKPKKTMKETQSPAPLQNSSGDPAEEESPV
B4: the Michaelis-Menten constant (Km) in series [6] was 0.2 mM; in series [7], greater than 60 mM; in series [8], 3.5 mM.

B5: Monocarboxylate transporter 3 (Gallus gallus), Q90632 (protein)
chain: MGRADPEEGQLPAPVKPPDGGWGWIVLFGCFVITGFSYAFPKAVSVYFKELMKDFHVGYSDTAWISSIMLAMLYGTGPVCSIMVNQFGCRPVMLIGGLLASSGMILASFTTNIIELYLTAGVLTGLGMALNFQPSLIMLGTYFDKRRPLANGLAAAGSPVFLSSLSPLGQVLLEKFGWRGGFLIMGGLLLNCCTCGAVMRPLDAGMKRKTEKAQDKYEAKEMLPMGGKSEEGISTTDGTKKTKKAKKKPKKGKKLLDFSIFSNRGFIIYTISKFILVLGLFVPPILLVNYAKDTGVPDTEAAFLLSIIGFIDIFARPACGMVAGLKWVRPHVAYLFSFAMLFNGLTDICSARASNYTGLVIFCVFFGISYGMVGALQFEVLMAIVGSQKFSSAIGLVLLIEAFAVLIGPPSAGRLVDALKNYEVIFYLAGSEVVLSALFLAMATYCCLNRGKKTPPPEKNPSAGGGSDTEEAESDVQEAEEHSSDNHQPAHGTDKATVAANEEANHVEDEQSGEGGRCPEADGEVSSRAGCNADQTVERDSF
Take B5: the Michaelis-Menten constant (Km) in [9] turned out to be 6 mM.

A word on the Km: it is the substrate concentration at which the rate is half of its maximum.

(Values after ChEMBL document CHEMBL5233245, “Monocarboxylate transporter 1 and 4 inhibitors as potential therapeutics for treating solid tumours: A review with structure-activity relationship insights” (Eur J Med Chem, 2020).)
